Test results reported in article doi:10.1101/2023.05.09.538545v2.

How the values were obtained:
Test in all cases: purified protein
Format in all cases: biochemical, Escherichia coli
Details in all cases: 0.05 M phosphate buffer, pH 7.0, 35 °C
[1] = substrate: CCCCCCCCCC(=O)N[C@H]1CCOC1=O
[2] = substrate: CCCCCCCCCC(=O)CC(=O)N[C@H]1CCOC1=O
[3] = substrate: CCCC(=O)CC(=O)N[C@H]1CCOC1=O
[4] = substrate: CCCCCC(=O)CC(=O)N[C@H]1CCOC1=O

B1: ecPGA (Escherichia coli penicillin G acylase) (Escherichia coli) (protein)
chain 1: EQSSSEIKIVRDEYGMPHIYANDTWHLFYGYGYVVAQDRLFQMEMARRSTQGTVAEVLGKDFVKFDKDIRRNYWPDAIRAQIAALSPEDMSILQGYADGMNAWIDKVNTNPETLLPKQFNTFGFTPKRWEPFDVAMIFVGTMANRFSDSTSEIDNLALLTALKDKYGVSQGMAVFNQLKWLVNPSAPTTIAVQESNYPLKFNQQNSQTA
chain 2: SNMWVIGKSKAQDAKAIMVNGPQFGWYAPAYTYGIGLHGAGYDVTGNTPFAYPGLVFGHNGVISWGSTAGFGDDVDIFAERLSAEKPGYYLHNGKWVKMLSREETITVKNGQAETFTVWRTVHGNILQTDQTTQTAYAKSRAWDGKEVASLLAWTHQMKAKNWQEWTQQAAKQALTINWYYADVNGNIGYVHTGAYPDRQSGHDPRLPVPGTGKWDWKGLLPFEMNPKVYNPQSGYIANWNNSPQKDYPASDLFAFLWGGADRVTEIDRLLEQKPRLTADQAWDVIRQTSRQDLNLRLFLPTLQAATSGLTQSDPRRQLVETLTRWDGINLLNDDGKTWQQPGSAILNVWLTSMLKRTVVAAVPMPFDKWYSASGYETTQDGPTGSLNISVGAKILYEAVQGDKSPIPQAVDLFAGKPQQEVVLAALEDTWETLSKRYGNNVSNWKTPAMALTFRANNFFGVPQAAAEETRHQAEYQNRGTENDMIVFSPTTSDRPVLAWDVVAPGQSGFIAPDGTVDKHYEDQLKMYENFGRKSLWLTKQDVEAHKESQEVLHVQR
Km [1]: 2980 ± 200 µM
kcat [1]: 0.0045 ± 0.0004 s⁻¹
Km [2]: 2500 ± 100 µM
kcat [2]: 0.0043 ± 0.0002 s⁻¹
Km [3]: 510 ± 30 µM
kcat [3]: 0.0100 ± 0.0002 s⁻¹
Km [4]: 880 ± 40 µM
kcat [4]: 0.0077 ± 0.0004 s⁻¹
